Usually Kd stands for the equilibrium constant for the complex coming apart. A higher Kd goes with lower affinity.

Substitutions are numbered along the chain they refer to. Names may count otherwise.

The record followed here is publication PMC10786891, “Massively parallel profiling of RNA-targeting CRISPR-Cas13d”.

First the molecules themselves.
T1: EsCas13d, nuclease-dead (Eubacterium siraeum, UniProt B0MS50, R295A;H300A;R849A;H854A)
T1 sequence: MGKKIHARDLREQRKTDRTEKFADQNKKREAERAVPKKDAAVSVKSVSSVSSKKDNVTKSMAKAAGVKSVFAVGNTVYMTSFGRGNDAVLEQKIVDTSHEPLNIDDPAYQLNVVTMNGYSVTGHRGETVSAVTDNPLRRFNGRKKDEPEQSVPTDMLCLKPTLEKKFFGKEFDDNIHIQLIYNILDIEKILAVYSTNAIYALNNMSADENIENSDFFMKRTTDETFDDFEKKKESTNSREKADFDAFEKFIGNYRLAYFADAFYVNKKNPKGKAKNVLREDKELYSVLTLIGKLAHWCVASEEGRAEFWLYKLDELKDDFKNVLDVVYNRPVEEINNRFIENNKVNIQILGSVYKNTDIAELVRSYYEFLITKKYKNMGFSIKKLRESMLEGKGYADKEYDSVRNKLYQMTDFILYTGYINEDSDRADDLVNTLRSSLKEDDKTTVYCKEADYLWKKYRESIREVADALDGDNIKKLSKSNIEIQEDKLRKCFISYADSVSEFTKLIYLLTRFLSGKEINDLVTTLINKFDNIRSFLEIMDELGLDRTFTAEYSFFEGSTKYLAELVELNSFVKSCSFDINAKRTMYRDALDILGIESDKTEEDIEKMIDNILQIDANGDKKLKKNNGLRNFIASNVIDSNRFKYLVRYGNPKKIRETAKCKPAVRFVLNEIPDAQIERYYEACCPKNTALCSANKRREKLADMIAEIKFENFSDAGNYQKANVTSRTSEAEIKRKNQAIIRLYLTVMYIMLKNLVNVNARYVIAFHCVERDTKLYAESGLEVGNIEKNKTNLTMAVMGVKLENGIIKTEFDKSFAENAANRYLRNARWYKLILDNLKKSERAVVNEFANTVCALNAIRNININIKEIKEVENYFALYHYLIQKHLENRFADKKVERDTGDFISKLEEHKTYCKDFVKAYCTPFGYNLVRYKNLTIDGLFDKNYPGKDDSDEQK

B1: target 1 del5,del8 (mixed)
RNA 1: CACCCGUGCAAAAAUGCAGGGGUCUAAAACUGAGCGGAUAACCUCUCUAUGG
RNA 2: GGGAAUGGAUCCACAUCUACGAAUUCGUACCAUAGAGAGGUUACCCUCACCGAGAUCGGAAGAGCACACGU
B2: target 1 complement block 4-7 (mixed)
RNA 1: B1 RNA 1
RNA 2: GGGAAUGGAUCCACAUCUACGAAUUCGUACCAUAGAGAGGUUAUGGCGUCACCGAGAUCGGAAGAGCACACGU
B3: target 1 insG 3' of 22,insG 3' of 8 (mixed)
RNA 1: B1 RNA 1
RNA 2: GGGAAUGGAUCCACAUCUACGAAUUCGUACGCAUAGAGAGGUUAUGCCGCUCACCGAGAUCGGAAGAGCACACGU
B4: target 1 complement block 3-7 (mixed)
RNA 1: B1 RNA 1
RNA 2: B2 RNA 2 with U49A
B5: target 1 C2U,C7U (mixed)
RNA 1: B1 RNA 1
RNA 2: B2 RNA 2 with G45U, G46C, C47G, G48C, C50U
B6: target 1 insC 3' of 12,insA 3' of 12 (mixed)
RNA 1: B1 RNA 1
RNA 2: GGGAAUGGAUCCACAUCUACGAAUUCGUACCAUAGAGAGGCAUUAUCCGCUCACCGAGAUCGGAAGAGCACACGU
B7: target 1 U3A,C21A (mixed)
RNA 1: B1 RNA 1
RNA 2: B2 RNA 2 with C31A, G45C, G46C, C47G, G48C, U49A
B8: target 1 C2G,G5U (mixed)
RNA 1: B1 RNA 1
RNA 2: B2 RNA 2 with G45C, G46C, C47U, G48C, C50G
B9: target 1 insA 3' of 22,insC 3' of 8 (mixed)
RNA 1: B1 RNA 1
RNA 2: B3 RNA 2 with G31A, G46C
B10: target 1 C4U,G13C (mixed)
RNA 1: B1 RNA 1
RNA 2: B2 RNA 2 with G39C, G45C, G46C, C47G, G48U
B11: target 1 U19C,C21A (mixed)
RNA 1: B1 RNA 1
RNA 2: B2 RNA 2 with C31A, U33C, G45C, G46C, C47G, G48C
B12: target 1 U3A,G17C (mixed)
RNA 1: B1 RNA 1
RNA 2: B2 RNA 2 with G35C, G45C, G46C, C47G, G48C, U49A
B13: target 1 complement block 1-6 (mixed)
RNA 1: B1 RNA 1
RNA 2: B2 RNA 2 with G45C, U49A, C50G, A51U
B14: target 1 C7A,A14C (mixed)
RNA 1: B1 RNA 1
RNA 2: B2 RNA 2 with A38C, G45A, G46C, C47G, G48C
B15: target 1 insU 3' of 21,insU 3' of 6 (mixed)
RNA 1: B1 RNA 1
RNA 2: B3 RNA 2 with G31C, C32U, G46C, C48U
B16: target 1 insC 3' of 20,insU 3' of 4 (mixed)
RNA 1: B1 RNA 1
RNA 2: B3 RNA 2 with G31C, C32A, A33C, G46C, C48G, G49C, C50U
B17: target 1 insC 3' of 17,insA 3' of 6 (mixed)
RNA 1: B1 RNA 1
RNA 2: B3 RNA 2 with G31C, C32A, A33U, U34A, A35G, G36C, G46C, C48A
B18: target 1 A1U,G5C (mixed)
RNA 1: B1 RNA 1
RNA 2: B2 RNA 2 with G45C, G46C, G48C, A51U
B19: target 1 A9C,A14G (mixed)
RNA 1: B1 RNA 1
RNA 2: B2 RNA 2 with A38G, A43C, G45C, G46C, C47G, G48C
B20: target 1 A1C,G5C (mixed)
RNA 1: B1 RNA 1
RNA 2: B2 RNA 2 with G45C, G46C, G48C, A51C
B21: target 1 G12U,G13A (mixed)
RNA 1: B1 RNA 1
RNA 2: B2 RNA 2 with G39A, G40U, G45C, G46C, C47G, G48C
B22: target 1 A1G,G5C (mixed)
RNA 1: B1 RNA 1
RNA 2: B2 RNA 2 with G45C, G46C, G48C, A51G
B23: target 1 insA 3' of 21,insU 3' of 12 (mixed)
RNA 1: B1 RNA 1
RNA 2: B3 RNA 2 with G31C, C32A, A44U, U45A, G46U
B24: target 1 C7A,C21A (mixed)
RNA 1: B1 RNA 1
RNA 2: B2 RNA 2 with C31A, G45A, G46C, C47G, G48C
B25: target 1 G5C (mixed)
RNA 1: B1 RNA 1
RNA 2: B2 RNA 2 with G45C, G46C, G48C
B26: target 1 U8G,G12A (mixed)
RNA 1: B1 RNA 1
RNA 2: B2 RNA 2 with G40A, U44G, G45C, G46C, C47G, G48C
B27: target 1 insC 3' of 3,insG 3' of 2 (mixed)
RNA 1: B1 RNA 1
RNA 2: B6 RNA 2 with C41U, A42U, U43A, A45C, U46C, C47G, G49U, U51C, C52G
B28: target 1 insA 3' of 21,insU 3' of 2 (mixed)
RNA 1: B1 RNA 1
RNA 2: B3 RNA 2 with G31C, C32A, G46C, C48G, G49C, C50U, U51C, C52U
B29: target 1 A9G,A14G (mixed)
RNA 1: B1 RNA 1
RNA 2: B2 RNA 2 with A38G, A43G, G45C, G46C, C47G, G48C
B30: target 1 G12U,A20C (mixed)
RNA 1: B1 RNA 1
RNA 2: B2 RNA 2 with A32C, G40U, G45C, G46C, C47G, G48C
B31: target 1 A1U,A14C (mixed)
RNA 1: B1 RNA 1
RNA 2: B2 RNA 2 with A38C, G45C, G46C, C47G, G48C, A51U
B32: target 1 U19A,C21A (mixed)
RNA 1: B1 RNA 1
RNA 2: B2 RNA 2 with C31A, U33A, G45C, G46C, C47G, G48C
B33: target 1 C7U,A9G (mixed)
RNA 1: B1 RNA 1
RNA 2: B2 RNA 2 with A43G, G45U, G46C, C47G, G48C
B34: target 1 A9G,A20C (mixed)
RNA 1: B1 RNA 1
RNA 2: B2 RNA 2 with A32C, A43G, G45C, G46C, C47G, G48C

The target in the data set is T1, EsCas13d, nuclease-dead. The experiment in a line: crRNA (strand 1, pre-loaded); Mg2+; 40 mM Tris-HCl pH 7.5, 150 mM NaCl, 6 mM MgCl2, 1 mM DTT, 0.1% Tween-20, 0.2 mg/ml BSA; 25 C; 10 min per concentration, then washed. The conditions noted are these: tags: His6-TwinStrep-SUMO cleaved; N-terminal SNAP kept (SNAP-Surface 488); label: 3' end held by stalled T7 RNA polymerase.
Regarding B1, the Kd stood at 18 ± 0.8 nM.

Consider B2, for which the Kd stood at 12.6 ± 0.8 nM.

Consider B3, for which the affinity, expressed as Kd, was 68 ± 7 nM.

Molecule B4 registered a Kd of 12.9 ± 0.8 nM. Compared with the last molecule, the Kd is about 5.3-fold lower.

The molecule B5 showed an equilibrium dissociation constant (Kd) of 6.5 ± 0.27 nM.

B6 registered a dissociation constant (Kd) of 14.7 ± 1.5 nM.

Regarding B7, the Kd is around 90 nM.

The molecule B8 registered an equilibrium dissociation constant (Kd) of 22.1 ± 1.4 nM.

Turning to B9, the equilibrium dissociation constant (Kd) was found to be 22.3 ± 2 nM.

Turning to B10, the Kd worked out at 50 ± 10 nM.

B11 came in with a dissociation constant Kd of 37 ± 5 nM.

Regarding B12, the dissociation constant (Kd) amounted to 44 ± 4 nM.

B13 showed a dissociation constant Kd of 6.14 ± 0.25 nM.

Regarding B14, the dissociation constant (Kd) was determined as 34 ± 4 nM.

For the molecule B15, the Kd is 31.4 ± 1.6 nM.

The molecule B16 yielded a Kd of 9.1 ± 0.5 nM.

Consider B17, for which the dissociation constant Kd was 44 ± 5 nM.

In turn, B18 showed an equilibrium dissociation constant (Kd) of 8.9 ± 0.5 nM. Against the preceding molecule, the Kd is about 4.9-fold lower.

For B19, the Kd worked out at 29.5 ± 2.4 nM.

In turn, B20 registered a Kd of 9 ± 0.7 nM.

Take B21: binding was characterised by a dissociation constant (Kd) of 3.99 ± 0.22 nM.

B22 registered an equilibrium dissociation constant (Kd) of 10 ± 0.5 nM. Against the preceding molecule, the Kd is about 2.5-fold higher.

B23: the Kd was determined as 16.4 ± 0.8 nM. This Kd lies about 1.6-fold higher than the previous one.

For B24, binding was characterised by a dissociation constant (Kd) of 36 ± 4 nM. Against the preceding molecule, the Kd is about 2.2-fold higher.

Take B25: the Kd was 9.6 ± 0.4 nM.

With B26, binding was put at a Kd of 12.9 ± 1.4 nM.

For the molecule B27, the Kd came out at 11.6 ± 0.7 nM.

Consider B28, for which the Kd came out at 17.9 ± 1 nM.

B29 showed a dissociation constant (Kd) of 14.4 ± 0.7 nM.

Take B30: binding was put at a Kd of 74 ± 32 nM.

In turn, B31 registered a dissociation constant (Kd) of 45 ± 6 nM.

For B32, the affinity, expressed as Kd, was 46 ± 5 nM.

Turning to B33, the equilibrium dissociation constant (Kd) is 15.7 ± 1.1 nM.

On to B34, for which the Kd is 54 ± 15 nM. Compared with the last molecule, the Kd is about 3.4-fold higher.
